Measurements from patent publication US20130071428A1.

Tests used:
[1] = biological target: b1, neg contr. (Clostridium tetani); experiment: Tettox ELISA, negative control peptide; antibody source not named in Table 4
[2] = biological target: J Z SKFIGITELKKLESKINKVF (Clostridium tetani)
[3] = biological target: J Z Z SKFIGITELKKLESKINKVF (Clostridium tetani)
[4] = biological target: J Z F I G I T E L K K L E S K I N K V F (Clostridium tetani)
[5] = biological target: J Z Z F I G I T E L K K L E S K I N K V F (Clostridium tetani)
[6] = biological target: … (18-mer) with Ahx-Lys(biotin) (Clostridium tetani)
[7] = biological target: … (18-mer) with Ahx-Lys(biotin) (Clostridium tetani); experiment: Tettox ELISA, biotinylated peptide on streptavidin plate

TetaQuin® (antibody) showed an OD (column without a head) [1] of 0.12 OD, an OD (column without a head) [2] of 0.28 OD and an OD (column without a head) [3] of 0.47 OD. It also gave an OD (column without a head) [4] of 0.17 OD, an OD (column without a head) [5] of 0.22 OD and an ELISA OD (Ala scan of …, # 4) of 0.65 OD. The ELISA OD (Ala scan of …, # 12) was 0.85 OD, the ELISA OD (Ala scan of …, # 15) was 0.88 OD and the ELISA OD (Ala scan of …, # 2) was 1.12 OD. It also gave an ELISA OD (Ala scan of …, # 3) of 1.04 OD, an ELISA OD (Ala scan of …, # 13) of 1.27 OD and an ELISA OD (Ala scan of …, # 7) of 1.24 OD. It also gave an ELISA OD [6] of 1.26 OD, an ELISA OD (Ala scan of …, # 9) of 0.62 OD and an ELISA OD (Ala scan of …, # 8) of 0.9 OD. It also gave an ELISA OD (Ala scan of …, # 16) of 1.37 OD, an ELISA OD (Ala scan of …, # 11) of 0.7 OD and an ELISA OD (Ala scan of …, # 10) of 1.06 OD. The ELISA OD (Ala scan of …, # 6) was 0.38 OD, the ELISA OD (Ala scan of …, # 14) was 1.1 OD and the ELISA OD (Ala scan of …, # 19) was 1.26 OD. It also gave an ELISA OD (Ala scan of …, # 5) of 0.3 OD, an ELISA OD (Ala scan of …, # 18) of 1.24 OD and an ELISA OD (Ala scan of …, # 17) of 1.3 OD. For the same substance, the OD [7] was 2.3 OD.
